The text below walks through data of US20040033534A1 (WISCONSIN ALUMNI RESEARCH FOUNDATION, published 2004).

Positions of bridges follow the written chain, without caps; N, C: chain ends. No end group written: not given here.

In data set [1] the target is PhoB (complete PhoB sequence).
The target in data set [2] is T1, VanR~P (phosphorylated VanR) (Enterococcus faecium, UniProt Q06239 1-231, phosphorylated with acetyl phosphate; Asp-55 is named as the residue that accepts the phosphoryl group). As to the kind of experiment: cell-based or functional assay.
T1 sequence (Q06239 whole entry): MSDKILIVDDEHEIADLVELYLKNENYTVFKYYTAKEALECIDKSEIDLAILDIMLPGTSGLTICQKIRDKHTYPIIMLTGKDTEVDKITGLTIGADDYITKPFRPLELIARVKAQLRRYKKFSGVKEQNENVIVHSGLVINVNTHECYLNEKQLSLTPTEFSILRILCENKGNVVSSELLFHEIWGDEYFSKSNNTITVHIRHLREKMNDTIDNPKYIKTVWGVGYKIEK
The target of data set [3] is T1, VanR~P (phosphorylated VanR). As to the kind of experiment: not stated (comparison of VanR and VanR˜P; reference is unphosphorylated VanR).

B1: GST-VanSc (Arg-93-TAA-283 stop) (protein)
chain: RVMLSKFAKYFDEINTGIDVLIQNEDKQIELSAEMDVMEQKLNTLKRTLEKREQDAKLAEQRKNDVVMYLAHDIKTPLTSIIGYLSLLDEAPDMPVDQKAKYVHITLDKAYRLEQLIDEFFEITRYNLQTITLTKTHIDLYYMLVQMTDEFYPQLSAHGKQAVIHAPEDLTVSGDPDKLARVFNNILKNAA
B1: the “phosphoryl transfer from VanS˜P to PhoB” value in data set [1] was “VanS˜P was incubated with PhoB, and phosphoryl transfer was assessed”.

As to SLAHDSIIGYLS [peptide SEQ ID NO. 2], in data set [2], the “IC50 for inhibiting VanR˜P binding to [32P] PVanH (gel shift), relative to SEQ ID NO. 1” value worked out at 10 fold.

As for SLCHDSVIGWEC (disulfide 3-12 (inferred), also called Peptide E12) [dodecamer peptide SEQ ID NO. 1], the “fold difference between binding to VanR and binding to VanR˜P” value in data set [3] is above 100 fold.
